In paper PMC9482650, “Quantitative fragmentomics allow affinity mapping of interactomes” (Nature Communications, 2022):

What was measured:
Assay type in all cases: cell-based, human
HUWE1 = assay: Label-free MS proteome of stable HEK293T cell lines; details: stable HEK293T cells compared to control cell line, n = 3
From the text: Proteins were identified by database searching using SequestHT (Thermo Fisher Scientific) with Proteome Discoverer 2.4 software (PD2.4, Thermo Fisher Scientific) on human FASTA database downloaded from SwissProt (reviewed, release 2020_11_27, 20304 entries, https://www.uniprot.org/). Precursor and fragment mass tolerances were set at 7 ppm and 0.6 Da respectively, and up to two missed cleavages were allowed. Oxidation (M, +15.995 Da) was set as variable modification, and Carbamidomethylation (C, +57.021 Da) as fixed modification. Peptides and proteins were filtered with a false discovery rate at 1%. Label-free quantification was based on the extracted ion chromatography intensity of the peptides. All samples were measured in technical triplicates. The measured extracted ion chromatogram (XIC) intensities were normalized based on median intensities of the entire dataset to correct minor loading differences. […] The detection threshold for enriched proteins in AP-MS experiments were analyzed above twofold enrichment with <0.01 P value. […] In case only a specific isoform of the detected protein contains a PBM, the identified peptide fragments were manually checked to check which isoform(s) were most likely detected. […]

HEK293T cells [1] = assay: Label-free MS proteome of stable cell lines expressing HPV16 E6 or E6ΔPBM; details: source data of Figure 6 D, IRES control line about 1; for p53 relative protein level: stable HEK293T cell line expressing the construct; for AHNAK relative protein level / LIN7C relative protein level / MPP6 relative protein level / SNX27 relative protein level: stable HEK293T cell line
In short: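 Confluent HEK293T lysates in HEPES-KOH pH 7.5, 1% Triton X-100 buffer, TCA-precipitated, reduced, alkylated, Lys-C then trypsin digested. nanoLC (90 min gradient) on LTQ-Orbitrap Elite, TOP20 CID data-dependent acquisition; SequestHT search of human SwissProt, 1% FDR. Label-free quantification by peptide XIC intensity, technical triplicates.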

HEK293T cells [2] = assay: RT-qPCR of mRNA levels in stable cell lines; details: source data of Suppl Figure 4 B, stable HEK293T cell line; for DLG1 relative mRNA level / GFP relative mRNA level / MAGI1 relative mRNA level / RPLP0 relative mRNA level / SCRIB relative mRNA level / SNTB2 relative mRNA level / SNX27 relative mRNA level / SYNJ2BP relative mRNA level / TAX1BP3 relative mRNA level / p53 relative mRNA level: IRES control line about 1
Description: Cells were plated on 6-well plates. When they reached confluency, RNA was isolated by using Qiagen RNeasy Mini kit (#74104). On-column DNase digestion was done by using Qiagen RNase-Free DNase Set (#79254). 2 μg total RNA per sample was transcribed to cDNA by using SuperScript IV kit (Invitrogen, #18091050) with random hexamer primers (Thermo Fisher #SO142) according to standard protocol. For qPCR, primers were designed with the help of Primer Blast (NCBI NIH, https://www.ncbi.nlm.nih.gov/tools/primer-blast/) choosing primers which recognize all common alternative transcripts of the given gene (Supplementary Fig 4). qPCR was done by using QuantiTect SyberGreen (Qiagen, #204143) and LightCycler II equipment (Roche). Standard ΔΔCt method was used to determine relative quantity to GAPDH. For further analyses GraphPad Prism 7 software was used.

SCRIB = assay: Western blot in stable HEK293T cell lines; details: for SCRIB relative protein level: source data of Figure 6 E, stable HEK293T cell line, IRES control line about 1
HEK293T cells [3] = assay: Western blot of PDZ-proteins, p53 and E6AP in stable cell lines; details: source data of Figure 6 E, stable HEK293T cell line, IRES control line about 1

B1: E6: wild-type HPV16 E6 oncoprotein stably expressed in HEK293T cells (protein, UniProt P03126 1-158, looked up)
chain: MHQKRTAMFQDPQERPRKLPQLCTELQTTIHDIILECVYCKQQLLRREVYDFAFRDLCIVYRDGNPYAVCDKCLKFYSKISEYRHYCYSLYGTTLEQQYNKPLCDLLIRCINCQKPLCPEEKQRHLDKKQRFHNIRGRWTGRCMSCCRSSRTRRETQL
modifications: full-length
notes: wild-type HPV16 E6 oncoprotein stably expressed in HEK293T cells
change of HUWE1 concentration (HUWE1): decreased by threefold
p53 relative protein level (HEK293T cells [1]; replicate 1): 0.1537
p53 relative protein level (HEK293T cells [1]; replicate 2): 0.2546
p53 relative protein level (HEK293T cells [1]; replicate 3): 0.1997
AHNAK relative protein level (HEK293T cells [1]; replicate 1): 0.9544
LIN7C relative protein level (HEK293T cells [1]; replicate 1): 0.7333
MPP6 relative protein level (HEK293T cells [1]; replicate 1): 0.8283
SNX27 relative protein level (HEK293T cells [1]; replicate 1): 0.8078
AHNAK relative protein level (HEK293T cells [1]; replicate 2): 0.9923
LIN7C relative protein level (HEK293T cells [1]; replicate 2): 0.764
MPP6 relative protein level (HEK293T cells [1]; replicate 2): 0.8646
SNX27 relative protein level (HEK293T cells [1]; replicate 2): 1.3738
AHNAK relative protein level (HEK293T cells [1]; replicate 3): 1.222
LIN7C relative protein level (HEK293T cells [1]; replicate 3): 1.025
MPP6 relative protein level (HEK293T cells [1]; replicate 3): 0.4141
SNX27 relative protein level (HEK293T cells [1]; replicate 3): 1.15
DLG1 relative mRNA level (HEK293T cells [2]; replicate 1): 1.01
GFP relative mRNA level (HEK293T cells [2]; replicate 1): 0.3883
MAGI1 relative mRNA level (HEK293T cells [2]; replicate 1): 1.0722
RPLP0 relative mRNA level (HEK293T cells [2]; replicate 1): 0.9236
SCRIB relative mRNA level (HEK293T cells [2]; replicate 1): 0.9974
SNTB2 relative mRNA level (HEK293T cells [2]; replicate 1): 1.021
SNX27 relative mRNA level (HEK293T cells [2]; replicate 1): 1.06
SYNJ2BP relative mRNA level (HEK293T cells [2]; replicate 1): 0.9318
TAX1BP3 relative mRNA level (HEK293T cells [2]; replicate 1): 0.9978
p53 relative mRNA level (HEK293T cells [2]; replicate 1): 1.205
DLG1 relative mRNA level (HEK293T cells [2]; replicate 2): 0.9789
GFP relative mRNA level (HEK293T cells [2]; replicate 2): 0.361
MAGI1 relative mRNA level (HEK293T cells [2]; replicate 2): 1.194
RPLP0 relative mRNA level (HEK293T cells [2]; replicate 2): 0.9077
SCRIB relative mRNA level (HEK293T cells [2]; replicate 2): 0.9906
SNTB2 relative mRNA level (HEK293T cells [2]; replicate 2): 1.145
SNX27 relative mRNA level (HEK293T cells [2]; replicate 2): 1.0167
SYNJ2BP relative mRNA level (HEK293T cells [2]; replicate 2): 1.042
TAX1BP3 relative mRNA level (HEK293T cells [2]; replicate 2): 1.009
p53 relative mRNA level (HEK293T cells [2]; replicate 2): 1.147
DLG1 relative mRNA level (HEK293T cells [2]; replicate 3): 0.8765
GFP relative mRNA level (HEK293T cells [2]; replicate 3): 0.3884
MAGI1 relative mRNA level (HEK293T cells [2]; replicate 3): 0.864
RPLP0 relative mRNA level (HEK293T cells [2]; replicate 3): 1.0145
SCRIB relative mRNA level (HEK293T cells [2]; replicate 3): 0.879
SNTB2 relative mRNA level (HEK293T cells [2]; replicate 3): 0.9516
SNX27 relative mRNA level (HEK293T cells [2]; replicate 3): 0.8492
SYNJ2BP relative mRNA level (HEK293T cells [2]; replicate 3): 0.8794
TAX1BP3 relative mRNA level (HEK293T cells [2]; replicate 3): 0.9092
p53 relative mRNA level (HEK293T cells [2]; replicate 3): 0.9937
HPV16 E6 relative mRNA level (HEK293T cells [2]; replicate 1): 0.5053
HPV16 E6 relative mRNA level (HEK293T cells [2]; replicate 2): 0.4889
HPV16 E6 relative mRNA level (HEK293T cells [2]; replicate 3): 0.4569
SCRIB relative protein level (SCRIB; replicate 1): 0.8205
SCRIB relative protein level (SCRIB; replicate 2): 0.6696
SCRIB relative protein level (SCRIB; replicate 3): 0.6225
decrease of SCRIB levels (SCRIB; western blot, GAPDH normalized, stable HEK293T cells compared to control cells, n = 3): ~ 30%
E6AP relative protein level (HEK293T cells [3]; replicate 1): 0.1109
MAGI1 relative protein level (HEK293T cells [3]; replicate 1): 1.104
SNX27 relative protein level (HEK293T cells [3]; replicate 1): 1.182
p53 relative protein level (HEK293T cells [3]; replicate 1): 0.0349
E6AP relative protein level (HEK293T cells [3]; replicate 2): 0.2467
MAGI1 relative protein level (HEK293T cells [3]; replicate 2): 0.7612
SNX27 relative protein level (HEK293T cells [3]; replicate 2): 0.5109
p53 relative protein level (HEK293T cells [3]; replicate 2): 0.03479
E6AP relative protein level (HEK293T cells [3]; replicate 3): 0.1353
MAGI1 relative protein level (HEK293T cells [3]; replicate 3): 0.6199
SNX27 relative protein level (HEK293T cells [3]; replicate 3): 0.8346
p53 relative protein level (HEK293T cells [3]; replicate 3): 0.01425
